Numbering of substitutions follows the chain as printed.
T1: human EphB6 extracellular region-SEAP-His protein (human, UniProt O15197 32-594)
T1 construct: extracellular domain; also called hEphB6-SEAP-His
T1 sequence (looked up): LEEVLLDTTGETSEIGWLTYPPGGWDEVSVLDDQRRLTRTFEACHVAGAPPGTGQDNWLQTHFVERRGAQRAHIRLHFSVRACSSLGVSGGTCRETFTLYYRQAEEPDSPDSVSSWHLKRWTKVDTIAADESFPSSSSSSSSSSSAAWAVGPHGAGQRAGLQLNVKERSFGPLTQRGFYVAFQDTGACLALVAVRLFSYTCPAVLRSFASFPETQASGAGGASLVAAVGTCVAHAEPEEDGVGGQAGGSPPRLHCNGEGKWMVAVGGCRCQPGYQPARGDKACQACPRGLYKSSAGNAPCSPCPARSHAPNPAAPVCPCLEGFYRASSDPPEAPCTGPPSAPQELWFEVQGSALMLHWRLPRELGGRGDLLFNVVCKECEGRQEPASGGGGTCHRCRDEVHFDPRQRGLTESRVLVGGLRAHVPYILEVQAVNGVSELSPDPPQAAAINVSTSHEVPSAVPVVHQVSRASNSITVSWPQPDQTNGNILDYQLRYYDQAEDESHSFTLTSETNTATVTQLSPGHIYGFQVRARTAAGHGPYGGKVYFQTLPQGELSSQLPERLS

T2: human EphA8 extracellular region-SEAP-His protein (human, UniProt P29322 28-542)
T2 construct: extracellular domain; also called hEphA8-SEAP-His
T2 sequence (looked up): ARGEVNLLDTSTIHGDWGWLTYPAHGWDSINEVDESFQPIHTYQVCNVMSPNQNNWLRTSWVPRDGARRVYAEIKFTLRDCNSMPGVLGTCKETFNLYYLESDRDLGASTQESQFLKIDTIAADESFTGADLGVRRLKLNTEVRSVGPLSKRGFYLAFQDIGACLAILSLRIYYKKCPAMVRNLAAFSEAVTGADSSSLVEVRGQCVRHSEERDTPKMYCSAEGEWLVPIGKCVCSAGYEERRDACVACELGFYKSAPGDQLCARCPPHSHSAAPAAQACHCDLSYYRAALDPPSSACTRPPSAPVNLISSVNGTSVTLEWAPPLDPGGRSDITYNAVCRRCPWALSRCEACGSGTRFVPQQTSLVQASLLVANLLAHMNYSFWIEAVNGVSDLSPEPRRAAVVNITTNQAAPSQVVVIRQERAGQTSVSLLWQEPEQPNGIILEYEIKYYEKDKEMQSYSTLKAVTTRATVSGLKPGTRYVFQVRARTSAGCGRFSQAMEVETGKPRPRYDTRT

T3: human EphA1 extracellular region-SEAP-His protein (human, UniProt P21709 26-547)
T3 construct: extracellular domain; also called hEphA1-SEAP-His
T3 sequence (looked up): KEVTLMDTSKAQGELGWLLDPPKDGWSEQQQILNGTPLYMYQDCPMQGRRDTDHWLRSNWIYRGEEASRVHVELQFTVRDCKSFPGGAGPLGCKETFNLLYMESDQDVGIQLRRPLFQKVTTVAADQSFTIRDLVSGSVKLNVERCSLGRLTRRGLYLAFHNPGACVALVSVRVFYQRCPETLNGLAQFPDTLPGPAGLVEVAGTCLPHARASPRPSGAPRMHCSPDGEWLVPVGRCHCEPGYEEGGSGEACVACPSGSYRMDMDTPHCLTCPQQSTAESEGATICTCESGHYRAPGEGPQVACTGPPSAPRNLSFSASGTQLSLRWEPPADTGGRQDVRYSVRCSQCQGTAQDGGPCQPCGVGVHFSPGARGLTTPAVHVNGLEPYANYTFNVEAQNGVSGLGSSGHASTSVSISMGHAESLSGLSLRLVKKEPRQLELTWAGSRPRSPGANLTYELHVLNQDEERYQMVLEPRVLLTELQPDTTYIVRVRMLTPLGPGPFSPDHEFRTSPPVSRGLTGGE

B1: humanized antibody No. 88 (antibody, human IgG1, kappa)
heavy: QVQLVQSGSELKKPGASVKVSCKASGYTFTDYSMHWVRQAPGQGLKWMGWINTETGEPTYAQGFTGRFVFSLDTSVSTAYLQISSLKAEDTAVYYCARIPLYYYGSRYWYFDVWGQGTTVTVSSASTKGPSVFPLAPSSKSTSGGTAALGCLVKDYFPEPVTVSWNSGALTSGVHTFPAVLQSSGLYSLSSVVTVPSSSLGTQTYICNVNHKPSNTKVDKRVEPKSCDKTHTCPPCPAPPAAAPSVFLFPPKPKDTLMISRTPEVTCVVVDVSHEDPEVQFNWYVDGVEVHNAKTKPREEQFNSTFRVVSVLTVVHQDWLNGKEYKCKVSNKGLPAPIEKTISKTKGQPREPQVYTLPPSREEMTKNQVSLTCLVKGFYPSDIAVEWESNGQPENNYKTTPPMLDSDGSFFLYSKLTVDKSRWQQGNVFSCSVMHEALHNHYTQKSLSLSPG
light: DIQMTQSPSSLSASVGDRVTITCRASENIYRNLAWYQQKPGKAPQLLLYAATNLADGVPSRFSGSGSGTDYTLTISSLQPEDFATYYCQHFWGTPWTFGQGTKVEIKRTVAAPSVFIFPPSDEQLKSGTASVVCLLNNFYPREAKVQWKVDNALQSGNSQESVTEQDSKDSTYSLSSTLTLSKADYEKHKVYACEVTHQGLSSPVTKSFNRGEC
notes: human Ig kappa; also called L1-6/HA2
B2: humanized antibody No. 140 (antibody, human IgG2)
heavy: QVQLVQSGSELKKPGASVKVSCKASGYTFTDYSMHWVRQAPGQGLKWMGWINTETGEPTYAQGFTGRFVFSLDTSVSTAYLQISSLKAEDTAVYYCARIPLYYYGSRYWYFDVWGQGTTVTVSSASTKGPSVFPLAPSSRSTSESTAALGCLVKDYFPEPVTVSWNSGALTSGVHTFPAVLQSSGLYSLSSVVTVPSSNFGTQTYTCNVDHKPSNTKVDKTVERKSCVECPPCPAPPAAAPSVFLFPPKPKDTLMISRTPEVTCVVVDVSHEDPEVQFNWYVDGVEVHNAKTKPREEQFNSTFRVVSVLTVVHQDWLNGKEYKCKVSNKGLPAPIEKTISKTKGQPREPQVYTLPPSREEMTKNQVSLTCLVKGFYPSDIAVEWESNGQPENNYKTTPPMLDSDGSFFLYSKLTVDKSRWQQGNVFSCSVMHEALHNHYTQKSLSLSPG
light: B1 light with Q45K, L48V
notes: human Ig kappa; also called L1-4/HA2
B3: humanized antibody No. 143 (antibody, human IgG2)
heavy: B2 heavy with V2I, Q62D, G63D, T65K
light: B1 light with Q45K, L48V
notes: human Ig kappa; also called L1-4/HK4
B4: humanized antibody No. 89 (antibody, human IgG1, kappa)
heavy: B1 heavy with V2I
light: B1 light
notes: human Ig kappa; also called L1-6/HA4
B5: humanized antibody No. 141 (antibody, human IgG2)
heavy: B2 heavy with K46E, Q62D, G63D, T65K
light: B1 light with Q45K, L48V
notes: human Ig kappa; also called L1-4/HK1
B6: humanized antibody No. 142 (antibody, human IgG2)
heavy: B2 heavy with Q62D, G63D, T65K
light: B1 light with Q45K, L48V
notes: human Ig kappa; also called L1-4/HK2
B7: humanized antibody No. 139 (antibody, human IgG2)
heavy: B2 heavy with K46E
light: B1 light with Q45K, L48V
notes: human Ig kappa; also called L1-4/HA1
B8: humanized antibody No. 92 (antibody, human IgG1, kappa)
heavy: B1 heavy with V2I, Q62D, G63D, T65K
light: B1 light
notes: human Ig kappa; also called L1-6/HK4
B9: humanized antibody No. 138 (antibody, human IgG2)
heavy: B2 heavy with V2I
light: B1 light with Q45K, L48V
notes: human Ig kappa; also called L1-4/HA4
B10: humanized antibody No. 90 (antibody, human IgG1, kappa)
heavy: B1 heavy with K46E, Q62D, G63D, T65K
light: B1 light
notes: human Ig kappa; also called L1-6/HK1
B11: humanized antibody No. 144 (antibody, human IgG2)
heavy: B2 heavy with K46E, Q62D, G63D, T65K
light: B1 light
notes: as for B10
B12: humanized antibody No. 91 (antibody, human IgG1, kappa)
heavy: B1 heavy with Q62D, G63D, T65K
light: B1 light
notes: human Ig kappa; also called L1-6/HK2

Experiments:
Test in all cases: ELISA
[1] = target: T4, human EphA2 extracellular region-SEAP-His protein (human, UniProt P29317 24-537)
T4 construct: extracellular domain; also called hEphA2-SEAP-His
T4 sequence (P29317 24-537): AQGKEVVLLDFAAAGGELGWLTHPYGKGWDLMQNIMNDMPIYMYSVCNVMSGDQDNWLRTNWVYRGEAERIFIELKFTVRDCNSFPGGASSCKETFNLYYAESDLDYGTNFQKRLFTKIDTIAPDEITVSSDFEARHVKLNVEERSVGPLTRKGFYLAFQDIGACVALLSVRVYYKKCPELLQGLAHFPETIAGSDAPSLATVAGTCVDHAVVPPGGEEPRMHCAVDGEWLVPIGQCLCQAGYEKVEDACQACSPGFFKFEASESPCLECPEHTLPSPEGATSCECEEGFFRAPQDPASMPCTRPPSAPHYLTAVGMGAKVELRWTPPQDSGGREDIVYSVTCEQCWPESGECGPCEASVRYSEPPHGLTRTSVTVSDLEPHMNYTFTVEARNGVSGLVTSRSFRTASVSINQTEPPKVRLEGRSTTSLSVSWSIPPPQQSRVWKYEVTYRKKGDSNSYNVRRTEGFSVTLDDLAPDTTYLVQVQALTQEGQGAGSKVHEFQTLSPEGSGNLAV
Protocol: (§1) Each well of a 96-well plate (Nunc) was coated with a rabbit anti-6-His antibody (Bethyl Laboratories). Each well was […] After washing with 0.05% Tween 20/PBS (Nacalai Tesque) three times, the SEAP-His protein of human EphA1, EphA2, EphA3, EphA4, EphA5, EphA6, EphA7, EphA8, EphA10, EphB1, EphB2, EphB3, EphB4, or EphB6 was added (final concentration: 1 nM) to each well and incubated at room temperature for 1 hour. After washing three times, the humanized antibody was added to each well and incubated at room temperature for 1 hour. After washing three times, a horseradish peroxidase-labeled donkey […] antibody (Jackson ImmunoResearch Laboratories) was added thereto and incubated at room temperature for 1 hour. After washing three times, TMB Microwell Peroxidase Substrate System (Kirkegaard & Perry Laboratories (KPL)) was added to each well. After confirmation of moderate color development, an equal amount of a reaction stopping solution (1N H₂SO₄, Wako Pure Chemical Industries) was added to each well. The absorbance at 450 nm was read using a microplate reader (Thermo Fisher Scientific).

[2] = target: T1, human EphB6 extracellular …
Protocol: as §1

[3] = target: T2, human EphA8 extracellular …
Protocol: as §1

[4] = target: T3, human EphA1 extracellular …
Protocol: as §1

[5] = target: T5, human EphA5 extracellular region-SEAP-His protein (human, UniProt P54756 25-573)
T5 construct: extracellular domain; also called hEphA5-SEAP-His
T5 sequence (P54756 25-573): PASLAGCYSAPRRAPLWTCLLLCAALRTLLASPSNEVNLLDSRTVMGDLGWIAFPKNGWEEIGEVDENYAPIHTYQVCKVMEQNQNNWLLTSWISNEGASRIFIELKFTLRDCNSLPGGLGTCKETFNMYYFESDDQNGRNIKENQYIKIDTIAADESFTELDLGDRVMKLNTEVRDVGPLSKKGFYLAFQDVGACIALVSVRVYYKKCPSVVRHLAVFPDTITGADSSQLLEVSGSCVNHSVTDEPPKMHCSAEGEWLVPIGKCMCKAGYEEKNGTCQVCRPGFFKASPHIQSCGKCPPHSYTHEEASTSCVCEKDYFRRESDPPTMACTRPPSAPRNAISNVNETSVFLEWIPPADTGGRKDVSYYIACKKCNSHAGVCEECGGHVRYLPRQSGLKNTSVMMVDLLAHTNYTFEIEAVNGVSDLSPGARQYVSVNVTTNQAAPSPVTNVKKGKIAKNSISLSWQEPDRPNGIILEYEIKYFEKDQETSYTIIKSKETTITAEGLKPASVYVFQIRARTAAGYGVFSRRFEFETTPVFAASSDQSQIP
Protocol: as §1

[6] = target: T6, human EphA4 extracellular region-SEAP-His protein (human, UniProt P54764 20-547)
T6 construct: also called hEphA4-SEAP-His
T6 sequence (P54764 20-547): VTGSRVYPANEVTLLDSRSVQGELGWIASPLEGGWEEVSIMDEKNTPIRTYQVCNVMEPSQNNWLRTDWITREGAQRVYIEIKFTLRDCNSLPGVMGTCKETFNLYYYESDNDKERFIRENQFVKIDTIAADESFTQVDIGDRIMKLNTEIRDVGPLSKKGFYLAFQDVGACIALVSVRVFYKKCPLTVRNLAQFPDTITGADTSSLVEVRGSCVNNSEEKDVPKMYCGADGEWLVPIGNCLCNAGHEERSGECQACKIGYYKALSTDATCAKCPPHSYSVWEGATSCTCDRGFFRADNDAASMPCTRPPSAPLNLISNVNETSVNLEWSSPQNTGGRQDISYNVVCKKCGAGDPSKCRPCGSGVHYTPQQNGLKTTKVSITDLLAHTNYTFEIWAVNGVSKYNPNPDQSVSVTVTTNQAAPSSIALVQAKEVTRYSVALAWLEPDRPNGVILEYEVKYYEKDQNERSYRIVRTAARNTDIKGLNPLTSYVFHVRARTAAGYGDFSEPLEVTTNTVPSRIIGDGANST
Protocol: as §1

Binder | A450 as % of hEphA4-SEAP-His [1] [%] | A450 as % of hEphA4-SEAP-His [2] [%] | A450 as % of hEphA4-SEAP-His [3] [%] | A450 as % of hEphA4-SEAP-His [4] [%] | A450 as % of hEphA4-SEAP-His [5] [%] | A450 as % of hEphA4-SEAP-His [6] [%]
B1 | 5.8 | 6.1 | 6.2 | 5.8 | 5.9 | 100
B2 | 5.3 | 5.2 | 5.4 | 5.5 | 5.4 | 100
B3 | 5.7 | 5.6 | 6 | 6 | 6.1 | 100
B4 | 5.6 | 4.8 | 5.7 | 5.5 | 5.8 | 100
B5 | 5.2 | 5.4 | 5.5 | 5.3 | 5.3 | 100
B6 | 5.6 | 5.6 | 5.7 | 5.6 | 5.7 | 100
B7 | 5.9 | 5.9 | 6 | 5.7 | 5.7 | 100
B8 | 6.9 | 6.5 | 6.7 | 7 | 6.8 | 100
B9 | 5 | 5 | 5.4 | 5.2 | 5.1 | 100
B10 | 5.2 | 5.2 | 5.4 | 5.1 | 5.1 | 100
B11 | 5.6 | 5.9 | 5.8 | 5.6 | 5.6 | 100
B12 | 6.1 | 6.3 | 6.2 | 5.8 | 6.4 | 100
